Laboratory results reported in patent publication US20240156980A1 (Molecular Partners, published 2024).
One block for each binder: values may come before it.

Experiments:
[1] = target: T1, recombinant mouse EGFR extracellular domain (mouse, UniProt Q01279 25-647); test: SPR (ProteOn XPR36); biotinylated DARPin captured on NLC chip, EGFR ECD as analyte; 1:1 Langmuir fit
T1 construct: extracellular domain; Bought protein; also called mEGFR; mouse EGFR ECD
Description: (§1) All SPR measurements were performed using a ProteOn™ XPR36 Protein Interaction Array System (Bio-Rad). […] PBS pH7.4 containing 0.005% Tween-20 (Sigma) was used as flow buffer, which was additionally supplemented with 1 mg/ml BSA in the case of mEGFR target. A three-fold dilution series from 0.74 nM to 60 nM of hEGFR or mEGFR was injected for 180 s at a flow rate of 100 ul/min, and dissociation was recorded for 1800 s. The captured DARPin molecules were regenerated by a single pulse of 10 mM glycine-HCl, pH 2.5+1M NaCl. The data was double-referenced using the interspots (surface reference) and a blank injection (buffer reference). Each individual dilution-set was fitted to the Langmuir-1:1-model.

[2] = target: T2, recombinant human EGFR extracellular domain (human, UniProt P00533 25-645); test: as above
T2 construct: range 25-645; The range L25-S645 is stated for the ECD used in the selection; the SPR analyte is printed as hEGFR / recombinant human EGFR ECD; also called hEGFR; human EGFR ECD
Description: as §1

[3] = target: T3, CD3-specific binding domain C7v118; test: SPR (ProteOn XPR36), biotinylated Binder captured on NLC neutravidin chip as ligand, CD3-specific binding domain as analyte, PBS-T, 25 C; KD from kon/koff
T3 construct: Used as analyte in SPR; also called hC22_88B02v118
T3 chain: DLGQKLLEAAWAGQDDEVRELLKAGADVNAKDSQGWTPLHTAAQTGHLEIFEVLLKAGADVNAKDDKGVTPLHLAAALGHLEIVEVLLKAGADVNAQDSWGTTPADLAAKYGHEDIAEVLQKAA
Description: (§2) An important feature of a binding moiety of the invention is its affinity towards a drug molecule. Relevant aspects include the off-rate of the binding moiety from the drug molecule and the resulting blocking half-life. Surface plasmon resonance (SPR) assays were used to determine the binding affinity of ankyrin repeat binding domains to the CD3 binding domain of a TCE drug molecule. AN SPR data was generated using a Bio-Rad ProteOn XPR36 instrument with PBS-T (0.005% Tween 20) as running buffer. A new neutravidin sensor chip (NLC) was air-initialized and conditioned according to Bio-Rad manual.

[4] = target: T4, CD3-specific binding domain C7v119; test: as above
T4 construct: Used as analyte in SPR; also called hC22_88B02v119
T4 chain: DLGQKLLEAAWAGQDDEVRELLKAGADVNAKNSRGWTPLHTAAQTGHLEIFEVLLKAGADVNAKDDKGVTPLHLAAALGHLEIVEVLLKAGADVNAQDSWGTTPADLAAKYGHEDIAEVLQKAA
Description: as §2

[5] = target: T5, CD3-specific binding domain C7v14; test: as above
T5 construct: Used as analyte in SPR; also called hC22_88B02v14
T5 chain: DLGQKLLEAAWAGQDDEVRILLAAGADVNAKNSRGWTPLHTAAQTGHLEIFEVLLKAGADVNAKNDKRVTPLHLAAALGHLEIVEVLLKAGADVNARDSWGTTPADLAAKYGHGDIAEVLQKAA
Description: as §2

[6] = target: T6, CD3-specific binding domain C7v122; test: as above
T6 construct: Used as analyte in SPR; also called hC22_88B02v122
T6 chain: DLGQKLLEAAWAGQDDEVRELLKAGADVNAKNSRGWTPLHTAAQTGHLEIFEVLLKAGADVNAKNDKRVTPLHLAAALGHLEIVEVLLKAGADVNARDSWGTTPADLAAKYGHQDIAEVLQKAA
Description: as §2

[7] = target: T7, CD3-specific binding domain C7v127; test: as above
T7 construct: Used as analyte in SPR; also called hC22_88B02v127
T7 chain: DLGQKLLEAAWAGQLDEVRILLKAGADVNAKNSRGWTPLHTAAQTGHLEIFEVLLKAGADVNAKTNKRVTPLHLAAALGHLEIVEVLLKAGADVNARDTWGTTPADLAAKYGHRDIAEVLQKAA
Description: as §2

[8] = target: T5, CD3-specific binding domain C7v14; test: SPR (affinity cited in Example 9; CD3-binding domain taken as C7v14); high affinity Binder #1
Description: as §2

[9] = target: T7, CD3-specific binding domain C7v127; test: SPR (ProteOn XPR36), biotinylated Binder on NLC chip, CD3-specific binding domain as analyte, 25 C
Description: as §2

[10] = target: T3, CD3-specific binding domain C7v118; test: SPR (ProteOn XPR36), biotinylated Binder captured on NLC neutravidin chip as ligand, CD3-specific binding domain as analyte, PBS-T, 25 C; KD by equilibrium fitting
Description: as §2

[11] = target: T4, CD3-specific binding domain C7v119; test: as above
Description: as §2

[12] = target: T5, CD3-specific binding domain C7v14; test: as above
Description: as §2

[13] = target: T6, CD3-specific binding domain C7v122; test: as above
Description: as §2

[14] = target: T8, human EGFR on tumor cells (human, UniProt P00533 25-1210); test: cell-based or functional assay
[15] = target: T8, human EGFR on tumor cells; test: cell-based or functional assay; remark: listed apart in the source
human CD3 on T cells [16] = target: T9, human CD3 on T cells (human, UniProt P07766 23-207; P09693 23-182; P04234 22-171); test: cell-based or functional assay
human CD3 on T cells [17] = target: T9, human CD3 on T cells; test: cell-based or functional assay; remark: listed apart in the source
[18] = target: T8, human EGFR on tumor cells; test: flow cytometry on HCT 116 tumor cells, detection with anti-DARPin antibodies
Description: (§3) The determination of CD3 binding was performed with human CD3 on Jurkat cells, and binding to hEGFR on cells with HCT116 tumor cells, using Flow Cytometer Attune Nxt. A titration of prodrug DARPin molecules was incubated with 200′000 cells per well (for both Jurkat and HCT116 cells) for 30 min at 4° C. After washing, CD3 binding of DARPin® molecule was detected by 1:1000-diluted anti-DARPin® Antibody-Mix (1 h incubation at 4° C.) with the corresponding secondary antibody anti-rabbit IgG Alexa Fluor 488 (30 min incubation at 4° C.), which was added after washing off excess anti-DARPin Antibodies. Cells were subsequently washed and stained for livedead (aqua, 1:1000, thermofisher) and resuspended in Cytofix fixation buffer (BD Biosciences). Median of mean fluorescence intensities of Alexa Fluor 488 binding on live cells were measured by Flow Cytometry and data was plotted using GraphPad Prism 8.

human CD3 on T cells [19] = target: T9, human CD3 on T cells; test: flow cytometry on Jurkat cells, detection with anti-DARPin antibodies
Description: as §3

T9 sequence (P07766 23-207, chain 1 of 3): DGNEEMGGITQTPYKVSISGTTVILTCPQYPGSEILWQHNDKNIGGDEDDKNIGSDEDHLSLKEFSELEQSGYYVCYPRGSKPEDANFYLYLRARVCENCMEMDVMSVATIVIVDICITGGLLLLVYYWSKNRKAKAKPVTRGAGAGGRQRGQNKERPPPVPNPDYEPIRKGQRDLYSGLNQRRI
T9 sequence (P09693 23-182, chain 2 of 3): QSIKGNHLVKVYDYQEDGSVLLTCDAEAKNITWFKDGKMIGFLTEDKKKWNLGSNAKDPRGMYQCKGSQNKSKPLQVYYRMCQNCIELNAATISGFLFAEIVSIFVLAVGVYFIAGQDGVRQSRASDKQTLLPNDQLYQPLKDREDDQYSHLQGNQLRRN
T9 sequence (P04234 22-171, chain 3 of 3): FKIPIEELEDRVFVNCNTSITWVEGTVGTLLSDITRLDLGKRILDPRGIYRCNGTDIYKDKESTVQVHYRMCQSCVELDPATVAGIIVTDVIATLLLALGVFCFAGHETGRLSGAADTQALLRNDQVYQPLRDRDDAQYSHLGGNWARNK

B2: Binder #1 (designed binder)
chain: MRGSHHHHHHGSDLGKKLLQAARAGQLDEVRELLKAGADVNAKDAKGLTPLHLAAYHGHLEIVEVLLKAGADVNAKDVYGWTPLHIAAASGHLEIVEVLLKAGADVNAKDWLGWTPLHLAASHGHLEIVEVLLKAGADVNAQDKSGKTPADLAARAGHQDIAEVLQKAA
modifications: biotinylated for SPR (site not stated)
notes: also called 06E05
- Kd [3]: 440 pM
- Kd [4]: 360 pM
- Kd [5]: 330 pM
- Kd [6]: 210 pM
- Kd [7]: 20 pM
- Kd [8]: < 1000 pM

B4: Binder #4 (designed binder)
chain: MRGSHHHHHHGSDLGKKLLQAARAGQLDEVRELLKAGADVNAKDAKGLTPLHLAAYHGHLEIVEVLLKAGADVNAKDVYGWTPLHIAAASGHLEIVEVLLKAGADVNAKDWLGWTPLHLAASAGHLEIVEVLLKAGADVNAQDKSGKTPADLAARAGHQDIAEVLQKAA
modifications: biotinylated for SPR (site not stated)
notes: N-terminal His-tag; also called 06E05v07
- Kd [10]: 41400 pM
- Kd [11]: 37500 pM
- Kd [12]: 35300 pM
- Kd [13]: 27200 pM
- binding result [9]: binds

B5: CD3-PDD NCL EGFR-C7v14-[NCL2]-06E05v05-6His (designed binder)
chain: MGSDLGYKLLRAAFHGQDDEVRILLAAGADVNAKDLIGQTPLHNAAWVGHLEIVEVLLKAGADVNAKDYYGNTPLHLAAHDGHLEIVEVLLKAGADVNAQDTWGETPADLATNAGHEDIAEVLQKAAGSPTPTPTTPTPTPTTPTPTPTGSDLGQKLLEAAWAGQDDEVRILLAAGADVNAKNSRGWTPLHTAAQTGHLEIFEVLLKAGADVNAKNDKRVTPLHLAAALGHLEIVEVLLKAGADVNARDSWGTTPADLAAKYGHGDIAEVLQKAASGPTPTPTTPTPTPTTPTPTPTGSDLGKKLLQAARAGQLDEVRELLKAGADVNAKDAKGLTPLHLAAYHGHLEIVEVLLKAGADVNAKDVYGWTPLHIAAASGHLEIVEVLLKAGADVNAKDALGWTPLHLAASHGHLEIVEVLLKAGADVNAQDKSGKTPADLAARAGHQDIAEVLQKAAGSHHHHHH
- T-cell activation EC50 (CD25 on CD8+ T cells), EGFR+ HCT 116 tumor cells and pan T-cells [14]: 53.2 pM
- T-cell activation EC50 (CD25 on CD8+ T cells), EGFR+++ A431 tumor cells and pan T-cells [14]: 679 pM
- masking window (EC50 difference between active TCE and CD3-PDD NCL), T-cell activation with A431 cells [15]: ~200 fold

B6: Active TCE EGFR-C7v119-6His (designed binder)
chain: MGSDLGYKLLRAAFHGQDDEVRILLAAGADVNAKDLIGQTPLHNAAWVGHLEIVEVLLKAGADVNAKDYYGNTPLHLAAHDGHLEIVEVLLKAGADVNAQDTWGETPADLATNAGHEDIAEVLQKAAGSPTPTPTTPTPTPTTPTPTPTGSDLGQKLLEAAWAGQDDEVRELLKAGADVNAKNSRGWTPLHTAAQTGHLEIFEVLLKAGADVNAKDDKGVTPLHLAAALGHLEIVEVLLKAGADVNAQDSWGTTPADLAAKYGHEDIAEVLQKAAGSHHHHHH
notes: Bispecific ankyrin repeat protein; also called active TCE (C7v119 comprising construct); anti-EGFR x anti-CD3
- T-cell activation EC50, HCT 116 tumor cells and pan T-cells (human CD3 on T cells [16]): 10.8 pM
- tumor cell killing EC50, HCT 116 tumor cells and pan T-cells (human CD3 on T cells [16]): 18.5 pM
- tumor cell killing EC50 (LDH release), HCT 116 tumor cells and pan T-cells (human CD3 on T cells [17]): 7.4 pM
- EC50 [18]: 427 pM
- EC50 (human CD3 on T cells [19]): > 10000 pM

B7: Active TCE EGFR-C7v122-6His (designed binder)
chain: MGSDLGYKLLRAAFHGQDDEVRILLAAGADVNAKDLIGQTPLHNAAWVGHLEIVEVLLKAGADVNAKDYYGNTPLHLAAHDGHLEIVEVLLKAGADVNAQDTWGETPADLATNAGHEDIAEVLQKAAGSPTPTPTTPTPTPTTPTPTPTGSDLGQKLLEAAWAGQDDEVRELLKAGADVNAKNSRGWTPLHTAAQTGHLEIFEVLLKAGADVNAKNDKRVTPLHLAAALGHLEIVEVLLKAGADVNARDSWGTTPADLAAKYGHQDIAEVLQKAAGSHHHHHH
notes: Bispecific ankyrin repeat protein; also called active TCE (C7v122 comprising construct); anti-EGFR x anti-CD3
- T-cell activation EC50, HCT 116 tumor cells and pan T-cells (human CD3 on T cells [16]): 6.8 pM
- tumor cell killing EC50, HCT 116 tumor cells and pan T-cells (human CD3 on T cells [16]): 7.2 pM
- tumor cell killing EC50 (LDH release), HCT 116 tumor cells and pan T-cells (human CD3 on T cells [17]): 2.2 pM
- EC50 [18]: 518 pM
- EC50 (human CD3 on T cells [19]): 7900 pM

Other lines, results leading:

- Kd [1]: 490 pM
- koff [1]: 0.00032 s⁻¹
- kon [1]: 640000 M⁻¹ s⁻¹
- Kd [2]: 470 pM
- koff [2]: 0.0002 s⁻¹
- kon [2]: 420000 M⁻¹ s⁻¹
B1: anti-EGFR DARPin (biotinylated, monovalent EGFR-specific ankyrin repeat domain) (designed binder)
chain: MGSDLGYKLLRAAFHGQDDEVRILLAAGADVNAKDLIGQTPLHNAAWVGHLEIVEVLLKAGADVNAKDYYGNTPLHLAAHDGHLEIVEVLLKAGADVNAQDTWGETPADLATNAGHEDIAEVLQKAA
modifications: biotinylated (site not stated)

- binding result [9]: binds
- Kd [3]: 126000 pM
- Kd [4]: 141000 pM
- Kd [5]: 114000 pM
- Kd [6]: 92400 pM
B3: Binder #2 (designed binder)
chain: MRGSHHHHHHGSDLGKKLLQAARAGQLDEVRELLKAGADVNAKDAKGLTPLHLAAYHGHLEIVEVLLKAGADVNAKDVAGWTPLHIAAASGHLEIVEVLLKAGADVNAKDWLGWTPLHLAASHGHLEIVEVLLKAGADVNAQDKSGKTPADLAARAGHQDIAEVLQKAA
modifications: biotinylated for SPR (site not stated)
notes: N-terminal His-tag; also called 06E05v03
